Paper PMC3335792, “M. tuberculosis Sliding β-Clamp Does Not Interact Directly with the NAD+ -Dependent DNA Ligase”

Columns and labels:
[1] = target: T1, Mtb beta-clamp, OregonGreen488-labeled (Mycobacterium tuberculosis, UniProt P9WNU1 1-402); assay: fluorescence intensity titration (OregonGreen-labeled protein); apparent Kd; no Mg2+; 20 mM Tris-Cl pH 7.5, 1 mM DTT, 0.2 mM EDTA, 40 mM NaCl, 22 C, 200 or 500 nM labeled clamp; ex 490 nm, em 517 nm; conditions: protein: recombinant, tags: C-terminal 6xHis, OregonGreen488 maleimide, chain copies: 2, label: none in fluorescence assay, 32P in EMSA
T1 sequence: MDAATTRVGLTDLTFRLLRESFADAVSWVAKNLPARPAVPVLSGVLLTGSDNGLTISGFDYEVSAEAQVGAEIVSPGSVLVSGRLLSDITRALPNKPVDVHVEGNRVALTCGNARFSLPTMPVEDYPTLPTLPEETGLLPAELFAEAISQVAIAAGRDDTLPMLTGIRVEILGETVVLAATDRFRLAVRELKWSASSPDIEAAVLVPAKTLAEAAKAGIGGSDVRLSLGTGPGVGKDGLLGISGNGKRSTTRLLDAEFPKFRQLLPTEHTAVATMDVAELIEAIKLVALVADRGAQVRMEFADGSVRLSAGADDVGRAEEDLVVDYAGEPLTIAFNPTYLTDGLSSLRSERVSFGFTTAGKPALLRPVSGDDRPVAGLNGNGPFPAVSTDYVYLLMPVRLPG

[2] = target: T1, Mtb beta-clamp, OregonGreen488-labeled; assay: fluorescence intensity titration (OregonGreen-labeled protein); apparent Kd; abstract gives 300 nM; no Mg2+; 20 mM Tris-Cl pH 7.5, 1 mM DTT, 0.2 mM EDTA, 40 mM NaCl, 22 C, 200 or 500 nM labeled clamp; ex 490 nm, em 517 nm; conditions: protein: recombinant; tags: C-terminal 6xHis; OregonGreen488 maleimide; chain copies: 2; label: none in fluorescence assay; 32P in EMSA

B1: nicked duplex (28-mer template + 18-mer + dA10) (dsDNA)
DNA 1: TTTTTTTTTTCCCTTGCTATACGATGGG
DNA 2: CCCATCGTATAGCAAGGG
DNA 3: AAAAAAAAAA
In the case of B1, the Kd ([1]; nicked duplex, 18-mer and 10-mer annealed to 28-mer, blunt ends) is reported as 530 nM.

B2: blunt duplex 18/18 (dsDNA)
DNA 1: CCCATCGTATAGCAAGGG
DNA 2: CCCTTGCTATACGATGGG
Binder B2 has a Kd ([1]; blunt) of 557 nM.

B3: 18/28-mer primed template (mixed)
DNA 1: TTTTTTTTTTCCCTTGCTATACGATGGG
DNA 2: CCCATCGTATAGCAAGGG
B3 was tested, and the Kd [2] was 326 nM.
